In data set [1] the target is C-terminally 5-carboxyfluorescein (5-FAM) conjugated Ac-H3K4me3 31mer peptide. Briefly: fluorescence polarisation; direct FP: Ac-H3K4me3-fluorescein 31mer with varying KDM5A_(1-797); 400 µM MnCl2 and 400 µM N-OG; with 350 µM H3 10mer effector peptide; Kd read at 1 min (the signal is stable for at least 1 h). (Fluorescence polarisation rises when a labelled molecule tumbles more slowly, as on binding a larger partner.)

Data set [2] has the same target. Briefly: fluorescence polarisation; direct FP: Ac-H3K4me3-fluorescein 31mer with varying KDM5A_(1-797); 400 µM MnCl2 and 400 µM N-OG; no effector peptide; Kd read at 1 min (the signal decreases over time).
Substrate in data set [3]: C[C@H](N)C(=O)N[C@@H](CCCNC(=N)N)C(=O)N[C@H](C(=O)N[C@@H](CCCC[N+](C)(C)C)C(=O)N[C@@H](CCC(N)=O)C(=O)N[C@H](C(=O)N[C@@H](C)C(=O)N[C@@H](CCCNC(=N)N)C(=O)N[C@@H](CCCCN)C(=O)N[C@@H](CO)C(=O)O)[C@@H](C)O)[C@@H](C)O
The data set is described as follows: KDM5A demethylation, FDH-coupled formaldehyde release assay. The data set is classed as biochemical, human. The note with it: other: H3K4me3 10mer as substrate (Figure S3, response to reviewers).

B1: KDM5A_(1-797) (enzyme)
chain: MAGVGPGGYAAEFVPPPECPVFEPSWEEFTDPLSFIGRIRPLAEKTGICKIRPPKDWQPPFACEVKSFRFTPRVQRLNELEAMTRVRLDFLDQLAKFWELQGSTLKIPVVERKILDLYALSKIVASKGGFEMVTKEKKWSKVGSRLGYLPGKGTGSLLKSHYERILYPYELFQSGVSLMGVQMPNLDLKEKVEPEVLSTDTQTSPEPGTRMNILPKRTRRVKTQSESGDVSRNTELKKLQIFGAGPKVVGLAMGTKDKEDEVTRRRKVTNRSDAFNMQMRQRKGTLSVNFVDLYVCMFCGRGNNEDKLLLCDGCDDSYHTFCLIPPLPDVPKGDWRCPKCVAEECSKPREAFGFEQAVREYTLQSFGEMADNFKSDYFNMPVHMVPTELVEKEFWRLVSSIEEDVIVEYGADISSKDFGSGFPVKDGRRKILPEEEEYALSGWNLNNMPVLEQSVLAHINVDISGMKVPWLYVGMCFSSFCWHIEDHWSYSINYLHWGEPKTWYGVPSHAAEQLEEVMRELAPELFESQPDLLHQLVTIMNPNVLMEHGVPVYRTNQCAGEFVVTFPRAYHSGFNQGYNFAEAVNFCTADWLPIGRQCVNHYRRLRRHCVFSHEELIFKMAADPECLDVGLAAMVCKELTLMTEEETRLRESVVQMGVLMSEEEVFELVPDDERQCSACRTTCFLSALTCSCNPERLVCLYHPTDLCPCPMQKKCLRYRYPLEDLPSLLYGVKVRAQSYDTWVSRVTEALSANFNHKKDLIELRVMLEDAEDRKYPENDLFRKLRDAVKEAETCASV
As a reminder, the Kd is a measure of binding affinity in units of concentration. Read a high Kd as lower affinity. Turning to B1, the Kd in data set [1] turned out to be 62.5 µM; in data set [2], 56.9 µM.

B2: KDM5A1-797 (Homo sapiens) (protein)
chain: MAGVGPGGYAAEFVPPPECPVFEPSWEEFTDPLSFIGRIRPLAEKTGICKIRPPKDWQPPFACEVKSFRFTPRVQRLNELEAMTRVRLDFLDQLAKFWELQGSTLKIPVVERKILDLYALSKIVASKGGFEMVTKEKKWSKVGSRLGYLPGKGTGSLLKSHYERILYPYELFQSGVSLMGVQMPNLDLKEKVEPEVLSTDTQTSPEPGTRMNILPKRTRRVKTQSESGDVSRNTELKKLQIFGAGPKVVGLAMGTKDKEDEVTRRRKVTNRSDAFNMQMRQRKGTLSVNFVDLYVCMFCGRGNNEDKLLLCDGCDDSYHTFCLIPPLPDVPKGDWRCPKCVAEECSKPREAFGFEQAVREYTLQSFGEMADNFKSDYFNMPVHMVPTELVEKEFWRLVSSIEEDVIVEYGADISSKDFGSGFPVKDGRRKILPEEEEYALSGWNLNNMPVLEQSVLAHINVDISGMKVPWLYVGMCFSSFCWHIEDHWSYSINYLHWGEPKTWYGVPSHAAEQLEEVMRELAPELFESQPDLLHQLVTIMNPNVLMEHGVPVYRTNQCAGEFVVTFPRAYHSGFNQGYNFAEAVNFCTADWLPIGRQCVNHYRRLRRHCVFSHEELIFKMAADPECLDVGLAAMVCKELTLMTEEETRLRESVVQMGVLMSEEEVFELVPDDERQCSACRTTCFLSALTCSCNPERLVCLYHPTDLCPCPMQKKCLRYRYPLEDLPSLLYGVKVRAQSYDTWVSRVTEALSANFNHKKDLIELRVMLEDAEDRKYPENDLFRKLRDAVKEAETCASV
notes: KDM5A1-797 was cloned into a pFASTBAC HTA vector; His (N, cleaved yes); made in house; host or cells: Sf21 insect cells (baculovirus)
The term Km denotes the substrate concentration at which the rate is half of its maximum. In the case of B2, the Km in data set [3] was 770 µM.
